Measured values: publication PMC6155126

Columns and labels:
FLAG-PAXX (human) = FLAG-PAXX (human) (UniProt Q9BUH6); test: affinity purification with mass spectrometry; anti-FLAG IP of FLAG-PAXX, -XLF, -XRCC4, -DNA-PKcs (stable) or FLAG-Pol λ (transient) from nucleoplasmic and benzonase-treated soluble chromatin fractions of HEK293F cells; FLAG peptide elution; LC-MS/MS
FLAG-Pol λ-WT (human) = FLAG-Pol λ-WT (human) (UniProt Q9UGP5)
Chain of FLAG-Pol λ-WT (human) (Q9UGP5 whole entry): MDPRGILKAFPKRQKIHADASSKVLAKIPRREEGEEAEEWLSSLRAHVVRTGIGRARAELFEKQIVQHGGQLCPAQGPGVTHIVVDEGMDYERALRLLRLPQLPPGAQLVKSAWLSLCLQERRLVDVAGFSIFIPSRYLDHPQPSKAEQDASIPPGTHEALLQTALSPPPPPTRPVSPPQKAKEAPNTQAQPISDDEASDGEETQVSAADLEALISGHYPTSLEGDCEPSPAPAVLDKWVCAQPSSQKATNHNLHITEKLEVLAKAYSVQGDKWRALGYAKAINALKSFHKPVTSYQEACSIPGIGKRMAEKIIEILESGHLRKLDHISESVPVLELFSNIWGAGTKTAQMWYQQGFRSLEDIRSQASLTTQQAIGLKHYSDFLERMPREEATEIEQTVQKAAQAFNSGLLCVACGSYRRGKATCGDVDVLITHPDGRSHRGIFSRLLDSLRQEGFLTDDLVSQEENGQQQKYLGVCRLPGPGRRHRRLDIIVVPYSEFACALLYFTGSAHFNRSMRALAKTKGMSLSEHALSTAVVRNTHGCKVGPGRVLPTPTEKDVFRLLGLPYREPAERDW

| stoichiometry N (FLAG-PAXX (human)) | Pol λ-dependent gap filling synthesis on a 5nt-gapped dsDNA (33-mer), stimulation by added protein over a concentration series (FLAG-Pol λ-WT (human)) [fold] | Substance |
| --- | --- | --- |
| 1 to 1.5 |  | DNA-PK holoenzyme (endogenous) (from UniProt P78527 1-4128; P12956 1-609; P13010 1-732) (complex) |
|  | < 10 | FLAG-PAXX (from UniProt Q9BUH6 1-204) (natural protein) |
